Tests used:
[1] = biological target: rabbit atheromatous protein extract; test: direct TR-FRET inhibition; six-fold excess of unlabeled atheromatous extract as competitor against biotinylated atheromatous extract, 16 h at 4 °C
[2] = biological target: unlabeled protein extract from untreated animals; test: direct TR-FRET inhibition; six-fold excess of unlabeled extract from untreated rabbits as competitor against biotinylated atheromatous extract, 16 h at 4 °C

inhibition of the DeltaF binding value [1] [%] | inhibition of the DeltaF binding value [2] [%] | Binder
75 | 50 | H2.1 scFv antibody (scFv) scFv: EVQLVESGGSLVKPGGSLRLSCAASGFTFSNYSMNWVRQAPGKGLEWISSISGSSRYIYYADFVKGRFTISRDNATNSLYLQMNSLRAEDTAVYYCVRGGVDSSGDNCFDLWGRGTLVTVSSGGGGSGGGGSGGGGSQSVLTQPASVSGSPGQSITISCAGTSSDVGGYNYVSWYQQHPGKAPKLMIYEDSKRPSGVSNRFSGSKSGNTASLTISGLQAEDEADYYCTSYGSGATLVFGGGTKLAV
80 | 35 | I8.1 scFv antibody (scFv) scFv: EVQLVESGGSLVKPGGSLRLSCAASGFTFSNYSMNWVRQAPGKGLEWISSISGSSRYIYYADFVKGRFTISRDNATNSLYLQMNSLRAEDTAVYYCVRNSFYASWSKDYSMEIWGRGTLVTVSSGGGGSGGGGSGGGGSQSVLTQPASVSGSPGQSITISCAGTSSDVGGYNYVSWYQQHPGKAPKLMIYEDSKRPSGVSNRFSGSKSGNTASLTISGLQAEDEADYYCQSWASRINIFGGGTKLAV
